Experimental findings from US20260265370A1 (SUZHOU TRANSCENTA THERAPEUTICS, published 2026) are described below.

The target of this test is T1, human PD-L1 (human, UniProt Q9NZQ7 19-290).
T1 construct: whole, on cells; Endogenous protein in FFPE tumour sections; also called PD-ligand 1
Put plainly: IHC on FFPE GC-02-0007 PDX tumour sections, Leica BOND III, membrane staining. On the procedure: PD-L1 expression status was also assessed to better understand the immune modulation pre- and post Hu18B10-HaLa treatment in GC-02-0007 PDX tumor samples. Immunohistochemistry (IHC) was performed on these 4% neutral buffered formalin fixed paraffin-embedded (FFPE) tumor sections using commercially available Rabbit anti-human PD-L1 monoclonal antibodies (SP263). After deparaffinization and rehydration, all slides were proceeded to antigen retrieval in BOND Epitope Retrieval Solution 2 (Leica, AR9640) for 30 minutes at 97-99° C. Subsequently quenched, blocked with peroxidase inhibitor and incubated with appropriately diluted SP263 (0.2 ug/mL) antibodies for 30 minutes at room temperature (RT). Antibody binding was visualized with BOND Polymer Detection (Leica, DS9800) for 8 minutes on auto-staining Leica BOND III. Sections were finally counterstained with Hematoxylin and mounted with permanent mounting medium.

T1 sequence (Q9NZQ7 19-290): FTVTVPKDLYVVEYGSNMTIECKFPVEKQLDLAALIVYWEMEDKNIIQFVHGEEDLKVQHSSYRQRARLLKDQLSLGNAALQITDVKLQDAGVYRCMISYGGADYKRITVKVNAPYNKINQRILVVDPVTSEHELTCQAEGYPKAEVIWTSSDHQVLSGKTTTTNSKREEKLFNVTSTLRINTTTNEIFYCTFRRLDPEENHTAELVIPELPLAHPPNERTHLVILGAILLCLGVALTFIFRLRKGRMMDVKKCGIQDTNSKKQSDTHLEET

B1: Rabbit anti-human PD-L1 monoclonal antibody SP263 (antibody, V domains shown)
VH: QSLEESGGRLVTPGTPLTLTCTASGFSLSNHAISWVRQAPGKGLEWIGTINSDTHTYYATWPKGRFTISKTSSTTVDLKMTSPTTEDTATYFCARRIFSSSNIWGPGTLVTVSS
VL: AIVMTQTSSPVSAVVGGTVAINCQASQSIYNNNWLSWFQQKPGQPPKLLIYLASTLASGVPSRFKGSGSGTQFTLTISDVVCDDAATYYCIGGESSNNDGIAFGGGTEVVVK
notes: Commercially available rabbit monoclonal antibody; also called anti-PD-L1 diagnostic antibody SP263
For the molecule B1, the binding result is “binds”.
